Laboratory results from patent publication US20210395318A1 (Molecular Partners, published 2021).

Tests used:
Assay in all cases: cell-based or functional assay
[1] = target: T1, human CD40 on primary human B cells or human monocyte-derived dendritic cells (human, UniProt P25942 21-277)
[2] = target: T1, human CD40 on primary human B cells or …; remark: listed apart in the source
[3] = target: T1, human CD40 on primary human B cells or …; remark: listed apart in the source
[4] = target: T1, human CD40 on primary human B cells or …; remark: listed apart in the source

T1 sequence (P25942 21-277 H80K/K81H limits assumed): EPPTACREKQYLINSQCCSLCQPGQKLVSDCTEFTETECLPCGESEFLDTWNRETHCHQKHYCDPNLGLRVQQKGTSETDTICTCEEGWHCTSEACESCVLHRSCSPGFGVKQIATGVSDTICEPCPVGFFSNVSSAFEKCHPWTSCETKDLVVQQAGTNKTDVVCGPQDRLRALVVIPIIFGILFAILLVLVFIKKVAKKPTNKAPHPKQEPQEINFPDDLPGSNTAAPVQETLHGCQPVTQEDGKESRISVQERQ

Row | Binder | EC50, % CD86, human B cells with FAP-CHO cells, w/o HSA [1] | EC50, MFI CD86, human B cells with FAP-CHO cells, w/o HSA [1] | Efficacy [MFI at highest dose], MFI CD86, human B cells with FAP-CHO cells, w/o HSA [2] | Efficacy at highest dose, % CD86, human B cells with FAP-CHO cells, w/o HSA [2] | Efficacy [MFI at highest dose], MFI CD86, human B cells with WT-CHO cells (no FAP), w/o HSA [3] | Efficacy at highest dose, % CD86, human B cells with WT-CHO cells (no FAP), w/o HSA [3] | fold increase of efficacy against SMA014, CD86 upregulation on human B cells with FAP expressing CHO cells [4] | fold increase of potency against SMA014, CD86 upregulation on human B cells with FAP expressing CHO cells [4] | EC50, % CD86, human B cells with FAP-CHO cells, w HSA [1] | EC50, MFI CD86, human B cells with FAP-CHO cells, w HSA [1] | Efficacy [MFI at highest dose], MFI CD86, human B cells with FAP-CHO cells, w HSA [2] | Efficacy at highest dose, % CD86, human B cells with FAP-CHO cells, w HSA [2] | Efficacy [MFI at highest dose], MFI CD86, human B cells with WT-CHO cells (no FAP), w HSA [3] | Efficacy at highest dose, % CD86, human B cells with WT-CHO cells (no FAP), w HSA [3]
1 | SMA105 (designed binder) MRGSHHHHHHGSDLGEKLLVAALYGQDDEVRELLKAGADVNAKDQWGLTPLHKAALQGHLEIVEVLLKAGADVNAKDERGHTPLHWAARFGHLEIVEVLLKAGADVNAQDQKGYTPADLAALWGHEDIAEVLQKAAGSPTPTPTTPTPTPTTPTPTPTGSDLGKKLLQAARAGQLDEVRELLKAGADVNAKDTWGFTPLHIAAESGHLEIVEVLLKAGADVNAKDVQGRTPLHIAAHSGHLEIVEVLLKAGADVNAKDFRGWTPLHLAAWSGHLEIVEILLKAGADVNAQDKSGKTPADLAARAGHQDIAEVLQKAAGSPTPTPTTPTPTPTTPTPTPTGSDLGKKLLQAARAGQLDEVRELLKAGADVNAKDTWGFTPLHIAAESGHLEIVEVLLKAGADVNAKDVQGRTPLHIAAHSGHLEIVEVLLKAGADVNAKDFRGWTPLHLAAWSGHLEIVEILLKAGADVNAQDKSGKTPADLAARAGHQDIAEVLQKAAGSPTPTPTTPTPTPTTPTPTPTGSDLGKKLLQAARAGQLDEVRELLKAGADVNAKDTWGFTPLHIAAESGHLEIVEVLLKAGADVNAKDVQGRTPLHIAAHSGHLEIVEVLLKAGADVNAKDFRGWTPLHLAAWSGHLEIVEILLKAGADVNAQDKSGKTPADLAARAGHQDIAEVLQKAA | 0.11 nM | 0.33 nM | 5560 MFI | 87.2% | 672 MFI | 69.2% |  |  |  |  |  |  |  | 
2 | SMA104 (designed binder) MRGSHHHHHHGSDLGEKLLVAALYGQDDEVRELLKAGADVNAKDQWGLTPLHKAALQGHLEIVEVLLKAGADVNAKDERGHTPLHWAARFGHLEIVEVLLKAGADVNAQDQKGYTPADLAALWGHEDIAEVLQKAAGSPTPTPTTPTPTPTTPTPTPTGSDLGKKLLQAARAGQLDEVRELLKAGADVNAKDTWGFTPLHIAAESGHLEIVEVLLKAGADVNAKDVQGRTPLHIAAHSGHLEIVEVLLKAGADVNAKDFRGWTPLHLAAWSGHLEIVEILLKAGADVNAQDKSGKTPADLAARAGHQDIAEVLQKAAGSPTPTPTTPTPTPTTPTPTPTGSDLGKKLLQAARAGQLDEVRELLKAGADVNAKDTWGFTPLHIAAESGHLEIVEVLLKAGADVNAKDVQGRTPLHIAAHSGHLEIVEVLLKAGADVNAKDFRGWTPLHLAAWSGHLEIVEILLKAGADVNAQDKSGKTPADLAARAGHQDIAEVLQKAA | 0.23 nM | 0.74 nM | 6270 MFI | 86.8% | 252 MFI | 46% | 2 fold | 20 fold |  |  |  |  |  | 
3 | SMA087 (designed binder) MRGSHHHHHHGSDLGKKLLEAARAGQDDEVRELLKAGADVNAKDYFSHTPLHLAARNGHLKIVEVLLKAGADVNAKDFAGKTPLHLAAADGHLEIVEVLLKAGADVNAQDIFGKTPADIAADAGHEDIAEVLQKAAGSPTPTPTTPTPTPTTPTPTPTGSDLGEKLLVAALYGQDDEVRELLKAGADVNAKDQWGLTPLHKAALQGHLEIVEVLLKAGADVNAKDERGHTPLHWAARFGHLEIVEVLLKAGADVNAQDQKGYTPADLAALWGHEDIAEVLQKAAGSPTPTPTTPTPTPTTPTPTPTGSDLGKKLLQAARAGQLDEVRELLKAGADVNAKDTWGFTPLHIAAESGHLEIVEVLLKAGADVNAKDVQGRTPLHIAAHSGHLEIVEVLLKAGADVNAKDFRGWTPLHLAAWSGHLEIVEILLKAGADVNAQDKSGKTPADLAARAGHQDIAEVLQKAA | 11.4 nM | 28.9 nM | 1640 MFI | 43.4% | 291 MFI | 12.5% |  |  | 72.3 nM | 52 nM | 799 MFI | 27% | 299 MFI | 13.7%
